Results: the nanobody polyreactivity screen of Harvey et al. (2022)

Experiment: yeast display, Sf9 membrane polyspecificity reagent, FACS + sequencing; frameworks hold sequencing errors
In short: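 Synthetic nanobody libraries on Saccharomyces cerevisiae BJ5465 were galactose-induced for 36–48 hours, stained 1 hour at 4 °C with 10% biotinylated, detergent-solubilized Sf9 membrane reagent and enriched on streptavidin microbeads. FACS then separated cells into low and high (top ~1%) gates by anti-HA (expression) and streptavidin (reagent binding) fluorescence. Genes were colony-PCR amplified, MiSeq 2 × 250 sequenced and CDR-length filtered. A clone's polyreactivity label is that of its gate of origin.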

| Sequence | polyreactivity (PSR sort gate) |
| --- | --- |
| QVQLVESGGGLVQAGGRLRLSCAASVFTYKSYAMVWYRQAPGKERELVASIDKSTGNTFYADSVKGRFTISRDNAKNTVYLQMNSLKPEDTAVYYCAVDLLRSESHSKHIIYDYWGQGTQVTVSS | low polyreactivity |
| QVQLVESGGGLVQAGGSLRLSCAASGGTFPYNAMGGYRQAPGKERELVAVITSGDGTYYADSVKGRFTISRDNAKNTVYLQMNSLKPEDTAVYYCAADYVVWFSFVYVVEYDYWGQGTQVTVSS | low polyreactivity |
| QVQLVESGGGLVQAGGSLRLSCAASGRIFPNYVMGWYRQAPGKERELVAAISRRGGRTYYADSVKGRFTISRDNAKNTVYLQMNSLKPEDTAVYYCARVPTRAEDVAGWTGMDYWGQGTQVTVSS | high polyreactivity |
| QVQLVESGGGLVQAGGSLRLSCAASGGIFYDNAMGWYRQARGKEWELVAAINWSGGSTYYADSVKGRFTISRDNAKNTVYLQMNSLKPDDTAVYYCAASRYFYRTYWNFYGMDYSGQGTQVTVSS | high polyreactivity |
| QVQLEESGGGLVQAGGSLRLSCAASGITFLNYAMGWYRQAPGKERELVAAISWSGGRTYYADSVKGRFTISRDNAKNTVYLQMNSLKPEDTAVYYCAVRGSWYSEHNYWGQGTQVTVSS | high polyreactivity |
| QVQLVDSGGGLVQAGGSLRLSCPASGFIFAKYAKGWSRQAPGKERELGAAITSGGSTNYADSVTGRFTISRDNAKNTVYLQMHSLKPEDTAVYYCNRGFDWWYRYRHYDYWGQGTQVTVSS | low polyreactivity |
| QVQLVESGGGLVQAGGSLRLSCAASGFTFYKYVMGWYRQAPGKERELVAAITTSGGSTYYADSVKGRFTISRDNAKNTVYLQMNSLKPEDTAVYYCNARSLHTSEGDYWGQGTQVTVSS | low polyreactivity |
| QDQLVESGRGLVQAGGSLRLSCAASGFIFYNYAMGWYIQAPGKERELVAAISASGGRTYFADSVQGRFTISRDNAKNTVYLQMNRLKPEDTAFYYCNARVNYKGYDYWGQGTQVTVSS | high polyreactivity |
| QVQLGESGGGLVQAGGSLRLSCAASARNSSFYEMGWYRQAPGKGSELVAAINWDDGTTYYADSVMGRFTISRDNAQNNVYFQKNSLNPEDTAVYYCAVEGFSSAAYDFEYWGQGSQVTVSS | high polyreactivity |
| QVQLVESGGGLVQAGGSLRLSCAASGRIFTGYAMGWYRQAPGKERELVAAINWSGGSTYYADSVKGRFTISRDNAKNTVYLQMNSLKPADTAVYYCNAGYVFSGSYYKYDYWGQGTQVTVSS | high polyreactivity |
| QVQLVESGGGLVQAGGSLRLSFAASGRIIGYYAMGWYRQAPGKERELVAAITRGGSTNYADSVKGRFTISRDNAKNTVYLQMNSLKPEDTAVYYCAADLARYGKRYDYWGQGTQVTVSS | low polyreactivity |
| QVQLVESGGGLVQAGGSLRLSCAASGRTFSVYTMGWYRQAPGKERELVASINWSGGRTYYADSVKGRFTISRDNAKYSVYFQMISLKPEDTAVYYCAATGWRTLFDYWGQGTQVTVSS | high polyreactivity |
| QVQLVESGGGLVQAGGSLRLSCAASGRTFGYTMGWYRQAPGKERELVAAITRSVTTYYADSVKGRFTISRDNAKNTVYLQMNSLKPEDTAVYYCAARPKYPYGRFGYYWGQGTQVTVSS | high polyreactivity |
| QVQLVETGGGLVQAGGSLRLSCAASGSIFVYNAMGWYRQAPGKERELVAGITFIGGSTYYADSVKGRFTISRDNAKNTVFLQMNSLKPEDTAVYYCNADVAPGIFYGYDSWGQGTQVTVSS | low polyreactivity |
| QVQLVESGGGLVQAGGSLRLSCAASGITFQRYAMGWYRQAPGKERELVAAISTNGGTTYYADSVKGRFTISRDNAKNTVYLQMNSLKPEDTAVYYCNAESGYVYYFRYNYLGQGTQVTVSS | high polyreactivity |
| QVQLVESGGGLVQAGGSLRLSSAASGRTFGGYAMGWYRQAPGKERELVAAISWTGGSTYDADSVKGRFTISRDNAKNTVYLQMNSLKPEDTAVYYCNRDVGRNYQGPEYYYWGQGTQVTVSS | low polyreactivity |

| Sequence | polyreactivity (PSR sort gate) |
| --- | --- |
| QVQLVESGGGLVQAGGSLRLSCAASGRTFFINAMGWYRQAPGKERELVAAMRVGAGSTYYADSVKGRFTISRDNAKNTVYLQMNSLKPEDTAVYYCSKRTATSTRKYDYWGQGTQVTVSS | high polyreactivity |
| QVQLEESGGGLVQAGGSLRLSCAASGSTFGPNTMGRYRQAPGKERELVAAISRAGRTYYADSVKGRFTISRDNAKNTVYLQINSLKPEDTAVYYCNAGRSYHWRAGREYDYWGQGTQVTVSS | low polyreactivity |
| QVQLVESGGGLVQAGGSLRLSCAASGSTFYWYTMGWYRQAPGKERELVATITSSGGRTYYADSVKGRFTISRDNAKNTVYLQMNSLKPEDTAVYYCAAYRRNSRWELDYWGQGTQVTVSS | high polyreactivity |
| QVQLVESGGGLVQAGGSLRLSCAASGSTFSRYAMGWYRQAPGKEMELVAAISWSGGSTYYADSVKGRFTISRDNAKNTVYLQMNSLKPEDTAVYYCAAYTYSFRANHDYWGQGTQVTVTS | high polyreactivity |
| QVQLVESGGGLVQAGGSLRLSCAASGSIFFGYAMGWYRQAPGKERELVAGISSNGGTTYYADSVKGRFTISRDYAKNTVYLQMNSLKPEDTAVYYCAKQYYARGYLYDYWGQGTQVTVSS | low polyreactivity |
| QVQLVESGGGLVQAGGSLRLSCAASGRIFSSYAMGWYRQAPGKERELVAAITRGGSTYYADSVKGRFTISRDNAKNTVYLQMNSLKPEDTAVYYCNAVGFYAANTFDYWGQGTQVTVSS | high polyreactivity |
| QVQLVESGGGLVQAGGSLRLICAASGRIFYSYAMGWYRQAPGKERELVAAITVSGGSTFYADSVKGRFTISRDNAKNTVYLQMNSLKPEDTAVYYCAATRFSQYDWGQGTQVTVSS | high polyreactivity |
| QVQLVQSGGGLVQAGGSLRLSCAASGFTLRRNAMGWYRQAPGKERELVAAISSSGSTYYADSVKGRFTISRDNAKNTVYLQMNSLKPEDTAVYYCAASATYKVRGGYWGQGTQVTVSS | high polyreactivity |
| QVQLVESGGGLVEAGGSLRLSCAASGLTIRWYAMGWYRQAPGKESEVVATISSGGSTNYADSVKGRFTISRDNAKNTVYFQMNSLTPEDTAVYYCNAYFRGYYHATIGMDYWGQGTQVTVSS | high polyreactivity |
| QVQLVESGGGLVQAGGSLRLSCAASGSISPYNAKGWYRQAPGKERELVAAISSGGRTYYAVSVKGRFTISRDNAKNTVYLQMNSLKPEDTAVYYCNKYPLRPYRGLGVYYRSDYWGQGTQVTVSS | high polyreactivity |
| QVQLVESGGGLVQAGGSLRLSCAASGRIFSNYAMGWYRQAPGKERELVAAITSGGNTYYADSVKGRFTISRDNAKNTVYLQMNSLKPEDTAVYYCATVFSVQGWYFGMNYWGQGSQVTVSS | low polyreactivity |
| QVQLVESGGGLVQAGGSLRLSCAASGSIFAGYTMGWSRQAPGKERELVAVISTGGRTKYADSVKGRFTISRDNAKNTVYLQMNSLKPEDTAVYYCAADSRGWSLDGDYWGQGTQVTVSS | low polyreactivity |
| QVQLVESGGGLVQAGGSLRLSCAASGSIFGKYAMGWYRQAPGKERELVAAISYSGGSTYYADSVKGRFTISRDNAKNTVYLQMNSLKPEDTAVYYCAVRGWGSAGKYDYWGQGTQVTVSS | high polyreactivity |
| QVQLVESGGGFVQAGGSLGLSCAASGSIFFVYAMGWYRQAPGKERELVADSTNGGDRNYADSVKGRFTISREHAKNTVYLQMHSLKPEDTAVYDCNARYYGYRSWLEAYNRGDYWGQATQVTVSS | high polyreactivity |
| QVQLVEEGGGLVQAGGSLRLSCAASGRISYYYTMGWYSQAPGKERELVAAISWSGGTTYYADSVKGRFTISRDNAKYTVYLQMYSLKPEDTAVYYCAARDYYTDFHGTRRYDYWGQGTLVTVSS | low polyreactivity |
